In test [1] the target is Laminin 511/521 (LM511/521) (UniProt O15230). Put plainly: cell-based or functional assay.
Test [2] shares this target. The test is described as follows: ELISA, Lu protein captured, 5 nM LM511/521, against native Lu gp or D1+2+3+4. (In general: In an ELISA, binding on a coated surface is turned into a signal by an enzyme label.)
Test [3] has the same target. Put plainly: SPR (Biacore), Lu protein captured, 10 nM LM511/521, against native Lu gp or D1+2+3+4.
The target is the same in test [4]. Put plainly: ELISA, 0.05 nM Lu gpFc captured by anti-human Fc, 5 nM LM511/521, anti-laminin detection.
Test [5] shares this target.
Experiment: not given

The target is the same in test [6]. The test is described as follows: ELISA of FIG. 6d, 0.05 nM Lu protein, LM511/521 added, anti-laminin detection.
For test [7] the target is unchanged. The test is described as follows: ELISA of FIG. 3c, 0.05 nM Lu gpFc captured by anti-Fc, LM511/521 added, anti-laminin detection.
Test [8] shares this target. The test is described as follows: SPR (Biacore) of FIG. 6e, 100 µl injection of 10 nM LM511/521 at 30 µl/min.
The target is the same in test [9]. The test is described as follows: SPR (Biacore X), Lu gpFc captured on protein A chip (40 RU), 100 µl injection of 10 nM LM511/521, total change in RU. For orientation: Surface plasmon resonance follows binding to a sensor surface in real time, without labels.
Test [10] shares this target. Put plainly: electron tomography (Protein Tomography) of an equimolar mixture of Lu gpFc and LM511/521.

B1: Human Lutheran glycoprotein on cells (K562 transfectant expressing Lu gp; late stage erythroblasts) (receptor)
chain: EVRLSVPPLVEVMRGKSVILDCTPTGTHDHYMLEWFLTDRSGARPRLASAEMQGSELQVTMHDTRGRSPPYQLDSQGRLVLAEAQVGDERDYVCVVRAGAAGTAEATARLNVFAKPEATEVSPNKGTLSVMEDSAQEIATCNSRNGNPAPKITWYRNGQRLEVPVEMNPEGYMTSRTVREASGLLSLTSTLYLRLRKDDRDASFHCAAHYSLPEGRHGRLDSPTFHLTLHYPTEHVQFWVGSPSTPAGWVREGDTVQLLCRGDGSPSPEYTLFRLQDEQEEVLNVNLEGNLTLEGVTRGQSGTYGCRVEDYDAADDVQLSKTLELRVAYLDPLELSEGKVLSLPLNSSAVVNCSVHGLPTPALRWTKDSTPLGDGPMLSLSSITFDSNGTYVCEASLPTVPVLSRTQNFTLLVQGSPELKTAEIEPKADGSWREGDEVTLICSARGHPDPKLSWSQLGGSPAEPIPGRQGWVSSSLTLKVTSALSRDGISCEASNPHGNKRHVFHFGTVSPQTSQAGVAVMAVAVSVGLLLLVVAVFYCVRRKGGPCCRQRREKGAPPPGEPGLSHSGSEQPEQTGLLMGGASGGARGGSGGFGDEC
The molecule B1 gave a cell adhesion assay: % of cells bound to coated laminin in test [1] of 70 to 85%.

B2: Lu gpFc domain deletion protein D1+2+3b (domains 1, 2 and 3, ending L354EL-…-Fc) (Fc fusion, not shown: a dimerising Fc or GST)
chain: EVRLSVPPLVEVMRGKSVILDCTPTGTHDHYMLEWFLTDRSGARPRLASAEMQGSELQVTMHDTRGRSPPYQLDSQGRLVLAEAQVGDERDYVCVVRAGAAGTAEATARLNVFAKPEATEVSPNKGTLSVMEDSAQEIATCNSRNGNPAPKITWYRNGQRLEVPVEMNPEGYMTSRTVREASGLLSLTSTLYLRLRKDDRDASFHCAAHYSLPEGRHGRLDSPTFHLTLHYPTEHVQFWVGSPSTPAGWVREGDTVQLLCRGDGSPSPEYTLFRLQDEQEEVLNVNLEGNLTLEGVTRGQSGTYGCRVEDYDAADDVQLSKTLELRVAYLNSPQTSQA
Turning to B2, the % of the binding of native Lu gp (ELISA) in test [2] was 68%. The molecule further registered a % of the binding of native Lu gp (Biacore) in test [3] of 42%.

B3: Native Lu gpFc fusion protein (five extracellular domains of human Lutheran glycoprotein fused to Fc) (Fc fusion, not shown: a dimerising Fc or GST)
chain: EVRLSVPPLVEVMRGKSVILDCTPTGTHDHYMLEWFLTDRSGARPRLASAEMQGSELQVTMHDTRGRSPPYQLDSQGRLVLAEAQVGDERDYVCVVRAGAAGTAEATARLNVFAKPEATEVSPNKGTLSVMEDSAQEIATCNSRNGNPAPKITWYRNGQRLEVPVEMNPEGYMTSRTVREASGLLSLTSTLYLRLRKDDRDASFHCAAHYSLPEGRHGRLDSPTFHLTLHYPTEHVQFWVGSPSTPAGWVREGDTVQLLCRGDGSPSPEYTLFRLQDEQEEVLNVNLEGNLTLEGVTRGQSGTYGCRVEDYDAADDVQLSKTLELRVAYLDPLELSEGKVLSLPLNSSAVVNCSVHGLPTPALRWTKDSTPLGDGPMLSLSSITFDSNGTYVCEASLPTVPVLSRTQNFTLLVQGSPELKTAEIEPKADGSWREGDEVTLICSARGHPDPKLSWSQLGGSPAEPIPGRQGWVSSSLTLKVTSALSRDGISCEASNPHGNKRHVFHFGTVSPQTSQA
Take B3: in [4], the ELISA % of native Lu gpFc is 100%. In [5], the Kd was 7.9 nM, the dissociation rate constant (koff) came out at 0.0126 s⁻¹ and the kon stood at 1.6e+06 M⁻¹ s⁻¹. The same molecule yielded an OD450 in test [6] of 0.99 OD450. For the same molecule, the OD450 in test [7] was 0.95 OD450. For the same molecule, the total change in RU in test [8] worked out at 129 RU. In test [9], the Biacore Δ RUs is 115 RU. Also, in [10], the % of LM511/521 molecules bound to Lu gpFc lay in the range of 50 to 60%.

B4: Lu gpFc E180A (Fc fusion, not shown: a dimerising Fc or GST)
chain: EVRLSVPPLVEVMRGKSVILDCTPTGTHDHYMLEWFLTDRSGARPRLASAEMQGSELQVTMHDTRGRSPPYQLDSQGRLVLAEAQVGDERDYVCVVRAGAAGTAEATARLNVFAKPEATEVSPNKGTLSVMEDSAQEIATCNSRNGNPAPKITWYRNGQRLEVPVEMNPEGYMTSRTVRAASGLLSLTSTLYLRLRKDDRDASFHCAAHYSLPEGRHGRLDSPTFHLTLHYPTEHVQFWVGSPSTPAGWVREGDTVQLLCRGDGSPSPEYTLFRLQDEQEEVLNVNLEGNLTLEGVTRGQSGTYGCRVEDYDAADDVQLSKTLELRVAYLDPLELSEGKVLSLPLNSSAVVNCSVHGLPTPALRWTKDSTPLGDGPMLSLSSITFDSNGTYVCEASLPTVPVLSRTQNFTLLVQGSPELKTAEIEPKADGSWREGDEVTLICSARGHPDPKLSWSQLGGSPAEPIPGRQGWVSSSLTLKVTSALSRDGISCEASNPHGNKRHVFHFGTVSPQTSQA
In turn, B4 registered an ELISA % of native Lu gpFc in test [4] of 104%. The Biacore Δ RUs in test [9] turned out to be 78.3 RU.

B5: Lu gpFc E132A/D133A (Fc fusion, not shown: a dimerising Fc or GST)
chain: EVRLSVPPLVEVMRGKSVILDCTPTGTHDHYMLEWFLTDRSGARPRLASAEMQGSELQVTMHDTRGRSPPYQLDSQGRLVLAEAQVGDERDYVCVVRAGAAGTAEATARLNVFAKPEATEVSPNKGTLSVMAASAQEIATCNSRNGNPAPKITWYRNGQRLEVPVEMNPEGYMTSRTVREASGLLSLTSTLYLRLRKDDRDASFHCAAHYSLPEGRHGRLDSPTFHLTLHYPTEHVQFWVGSPSTPAGWVREGDTVQLLCRGDGSPSPEYTLFRLQDEQEEVLNVNLEGNLTLEGVTRGQSGTYGCRVEDYDAADDVQLSKTLELRVAYLDPLELSEGKVLSLPLNSSAVVNCSVHGLPTPALRWTKDSTPLGDGPMLSLSSITFDSNGTYVCEASLPTVPVLSRTQNFTLLVQGSPELKTAEIEPKADGSWREGDEVTLICSARGHPDPKLSWSQLGGSPAEPIPGRQGWVSSSLTLKVTSALSRDGISCEASNPHGNKRHVFHFGTVSPQTSQA
Regarding B5, the ELISA % of native Lu gpFc in [4] came to 69.4%. The molecule further came in with a Biacore Δ RUs in test [9] of 57.3 RU.

What is called Kd is the constant that tells how readily two partners part at equilibrium. Read a low Kd as higher affinity. The koff is a measure of how fast the partners let go of each other. The term kon denotes the second-order rate constant of association. Low values mean slower complex formation, high ones faster complex formation.

Values taken from US20100211325A1.
